Starred links: 1 amine or outer side, 2 acyl side, 3 side chain; linkers in the order of their positions; H or OH if unused. Non-standard residues stand in square brackets, D forms with d. Groups on a side chain read outwards from the residue. Primed or numbered codes have the meaning given here. No end group written: not given here. *: point of attachment. alkynylpropionyl = alkynylpropionyl (alkyne-ethyl) group on the N-terminal spacer, reacted by CuAAC with the azide; PEG4′ = PEGylated amino acid with four EG (ethylene glycol) repeats; C16 diacid = O=C(O)CCCCCCCCCCCCCCC(=O)*; γGlu = O=C(O)[C@H](CCC(=O)[*:2])N[*:1]; Palmitoyl = CCCCCCCCCCCCCCCC(=O)*; Azidoacetyl = [N-]=[N+]=NCC(=O)*; Aib = CC(C)(N)C(=O)O

The target of data set [1] is T1, GLP-1 receptor (Rattus norvegicus, UniProt P32301).
T1 construct: endogenous in cells; host or cells: rat INS-1 cells
T1 sequence (P32301 22-463): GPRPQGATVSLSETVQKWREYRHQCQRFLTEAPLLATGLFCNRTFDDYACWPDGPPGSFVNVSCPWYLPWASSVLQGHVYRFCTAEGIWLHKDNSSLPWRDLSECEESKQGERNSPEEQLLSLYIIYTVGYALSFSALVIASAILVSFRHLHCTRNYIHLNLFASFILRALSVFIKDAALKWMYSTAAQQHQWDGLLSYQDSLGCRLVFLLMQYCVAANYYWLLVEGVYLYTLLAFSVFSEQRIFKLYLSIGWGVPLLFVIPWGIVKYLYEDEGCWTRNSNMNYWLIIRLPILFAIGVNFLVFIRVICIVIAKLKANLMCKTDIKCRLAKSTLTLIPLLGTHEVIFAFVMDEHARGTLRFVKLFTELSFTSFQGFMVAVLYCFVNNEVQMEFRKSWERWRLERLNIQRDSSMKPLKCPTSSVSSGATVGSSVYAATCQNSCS
Put plainly: GLP-1R-mediated cAMP generation in INS-1 cells (cAMP ELISA kit). Format: cell-based. The conditions noted are these: 100 nM, 2.5 mM glucose, 20 min, 37° C., FIG. 17. The protocol:
Briefly, on day one, 2×10^5 INS-1 cells were plated in each well of a 24-well plate (ThermoFisher Scientific, Waltham, USA) with 500 μL/well culture medium. […] 100 nM liraglutide, as a positive control for cAMP generation, was added to control wells and incubated for 20 min at 37° C. Glucose at lower concentration (2.5 mM) was used as a negative control, and glucose at higher concentration (16 mM) was used as a control for glucose-induced cAMP generation. After 20 minutes of incubation, the medium was aspirated and 200 μl of 0.1N HCl was added to each well. The cells were scraped off from the surface by cell scraper and subjected to centrifugation at 1,000×g for 10 min at 4° C. The supernatant was transferred to new tubes and used for experiment in a 96-well plate. Cyclic AMP levels in the cells were measured at wavelength of 420 nm using SpectraMax M2 microplate reader (Molecular devices, San Jose, USA).

The subject of data set [2] is INS-1 cells. Put plainly: Alamar Blue cell viability / proliferation of INS-1 cells. The data set is classed as cell-based, rat. The conditions noted are these: 30 mM glucose, 100 nM, 24, 48 and 72 hours, compared with liraglutide, FIG. 19. The protocol:
The cultured INS-1 cells were seeded at a density of 2×10^4 cells/well into 96-well plate in culture medium containing 10% […] bovine serum. After 48 hours, the cells were further incubated for another 24 hours for serum starvation. […] The cells cultured in normal medium being used as a control.
After being incubated for 24, 48 and 72 hours, the cell viability was then determined by Alamar Blue cell viability reagent kit (Invitrogen) in accordance with the manufacturer's instruction.
The cell proliferation ratio (see FIG. 19) was a ratio of the cell viability at multiple time points compared to 0 hour.

The test system of data set [3] is caspase-3. Put plainly: Western blot of activated caspase-3 expression in INS-1 cells. The conditions noted are these: xx mM glucose, normalized against β-actin, FIGS. 18A/18B. Format: cell-based, rat. The source says:
Cleaved caspase-3 is a key executor in the apoptotic process. In this example, the expression of caspase-3 was detected using western blot analysis.
For the immunoblot analysis, proteins were separated using SDS-PAGE, and then transferred onto a polyvinylidene fluoride (PVDF) membrane. The membrane was probed using antibodies against caspase-3 (Cell Signaling Technology, Danvers, USA), followed by horseradish peroxidase-(HRP) conjugated secondary antibodies (Epitomics, Burlingame, USA). The membrane was visualized using an enhanced chemiluminescence system (GE Healthcare Life Sciences, Buckinghamshire, USA). The levels of protein expression were normalized against β-actin expression.

The conditions of data set [4]: in vivo; cited from earlier work.

On to “GLP-1-Aib^8-EG4-2E-2FA-C16-acid: Aib-substituted GLP-1 agonist having an azide group coupled via CuAAC to alkyne-EG4-2E-2FA-C16-acid (Example 11) (peptide H[Aib]EGTFTSDVSSYLEGQAAK([γGlu-Azidoacetyl])LEFIAWLVRGRG; chain alkynylpropionyl-[PEG4′]K([γGlu-C16 diacid])[PEG4′]K([γGlu-C16 diacid])-OMe; also: triazole at chain A 20 to a chain's N-terminus)”, for which, in data set [1], the “cellular cAMP level” value is given as “elicited the expected rise in cellular cAMP level”. Further, the “cell viability (cell proliferation ratio vs 0 hour)” value in data set [2] is recorded as “significantly improved”.
“GLP-1-Aib^8-EG4-2E-2FA-C16: Aib-substituted GLP-1 agonist having an azide group coupled via CuAAC to alkyne-EG4-2E-2FA-C16 (Example 10) (peptide H[Aib]EGTFTSDVSSYLEGQAAK([γGlu-Azidoacetyl])LEFIAWLVRGRG; chain alkynylpropionyl-[PEG4′]K([γGlu-Palmitoyl])[PEG4′]K([γGlu-Palmitoyl])-OMe; also: triazole at chain A 20 to a chain's N-terminus)”: in data set [3], the “expression level of caspase-3” value is on record as “can effectively reduce the expression level of caspase-3”. For the same substance, in data set [1], the “cellular cAMP level” value is recorded as “elicited the expected rise in cellular cAMP level”. The “cell viability (cell proliferation ratio vs 0 hour)” value in data set [2] is recorded as “significantly improved”.
For the substance albiglutide, the serum half-life in data set [4] is 96 to 170 h.

These data come from patent US10993986B2, “Pharmaceutical constructs with enhanced binding affinity with albumin” (Immunwork Inc., priority 2017, dated 2021).
